Publication PMC4342241, “Antimicrobial Characterization of Site-Directed Mutagenesis of Porcine Beta Defensin 2” (PLoS ONE, 2015)
Where no end group is shown, it is not given here.

Columns and labels:
[1] = tested on: porcine erythrocytes; assay: Hemolytic activity assay (release of hemoglobin); assay type: cell-based; details: 0~80 μg/ml, 37°C for 1 h
Experimental: The release of hemoglobin from porcine erythrocytes was used as a measure for the hemolytic activity of defensin as described before. 1mL fresh porcine blood was centrifuged at 1800 g for 10 min for collecting erythrocytes in the presence of heparin to prevent coagulation. The pellet was washed three times and re-suspended in saline solution at the proportion of 1:9. Subsequently, 100 μL erythrocyte solution was mixed with 100 μL of individual mutated defensins (final concentrations were 0~80 μg/ml) in polypropylene 96-well microtiter plates. After incubation at 37°C for 1 h, the plate was centrifuged at 1800 g for 5 min. 100 μL supernatant was transferred to a new 96-well plate separately and the absorbance was measured at 450 nm (reference 630 nm) using a microplate reader. The hemolysis ratio was calculated by comparison with the control samples containing no peptide or 1% Trition-100 [24–25].
Different concentrations of mutant pBD2 protein (100 μL) were separately incubated with erythrocytes (100 μL) at 37°C for 1 h. Less than 10% hemolysis ratio was found at all different concentrations of mpBD2-1~8 (data not shown). No significant differences were observed among different concentrations or among different mutants (P > 0.05).

[2] = cited from earlier work
Text: In this report, eight amino acids of pBD2 were selected for substitution by arginine or lysine based on rational analysis. It was hypothesized that the major factor defining the antimicrobial activities of defensins was their cationicity or isoelectric point (pI) values. Indeed, the antimicrobial activities of defensins increased with their net charges. Harder et al reported that human beta defensin 3 (hBD3) had the strongest activity among hBD1, 2 and 3, because it had the most net positive charges (hBD1, 2 and 3 has +5, +6, and +11 net pos ...

Porcine β defensin 2 [pBD2]
hemolytic activity (in words) [1]: low hemolytic activities

hBD2: human beta defensin 2 (GIGDPVTCLKSGAICHPVFCPRRYKQIGTCGLPGTKCCKKP; ends and bridges not checked; cysteine pairing not given here; UniProt O15263 24-64, looked up)
net positive charges [2]: +6

human beta defensin 3 (GIINTLQKYYCRVRGGRCAVLSCLPKEEQIGKCSTRGRKCCRRKK; ends and bridges not checked; cysteine pairing not given here; UniProt P81534 23-67, looked up) [hBD3]
net positive charges [2]: +11

human β defensin 1 (DHYNCVSSGGQCLYSACPIFTKIQGTCYRGKAKCCK; ends and bridges not checked; cysteine pairing not given here; UniProt P60022 33-68, looked up) [hBD1]
net positive charges [2]: +5
